The assay addresses T1, human recombinant CPPED1 with N-terminal His-V5 dual tag (human, UniProt Q9BRF8 1-314).
T1 construct: Calcineurin-like phosphoesterase domain-containing protein 1 (CPPED1), human; cloned into PSF-OXB20-NH2-6HIS-V5-TEV; 38.9 kDa including the His-V5 dual tag; The vector name holds a TEV site; no cleavage is told; also called calcineurin-like phosphoesterase domain-containing protein 1; purified recombinant CPPED1; not shown: His6, N-terminal, kept; V5, N-terminal, kept
The assay can be described thus: peptide or protein array; HuProt v3.1 human proteome microarray; >20 000 human recombinant proteins immobilised on the array; purified His-V5-CPPED1 applied. The conditions noted are these: both partners purified.

B1: Interferon-stimulated exonuclease gene 20 (enzyme)
chain: not shown
notes: Interferon-stimulated exonuclease gene 20, human, as on the HuProt v3.1 array; also called ISG20; source: S. cerevisiae, purified (GST tag); on bought array: HuProt v3.1, Cambridge Protein Arrays
For B1, the binding result is “binds”.

B2: HIV-1 Tat interactive protein 2 (natural protein, human, UniProt Q9BUP3 1-242, looked up)
chain: MAETEALSKLREDFRMQNKSVFILGASGETGRVLLKEILEQGLFSKVTLIGRRKLTFDEEAYKNVNQEVVDFEKLDDYASAFQGHDVGFCCLGTTRGKAGAEGFVRVDRDYVLKSAELAKAGGCKHFNLLSSKGADKSSNFLYLQVKGEVEAKVEELKFDRYSVFRPGVLLCDRQESRPGEWLVRKFFGSLPDSWASGHSVPVVTVVRAMLNNVVRPRDKQMELLENKAIHDLGKAHGSLKP
notes: also called HTATIP2; source: S. cerevisiae, purified (GST tag); on bought array: HuProt v3.1, Cambridge Protein Arrays
Take B2: the binding result was “binds”.

B3: CRK proto-oncogene, adaptor protein (natural protein, human, UniProt P46108 1-304, looked up)
chain: MAGNFDSEERSSWYWGRLSRQEAVALLQGQRHGVFLVRDSSTSPGDYVLSVSENSRVSHYIINSSGPRPPVPPSPAQPPPGVSPSRLRIGDQEFDSLPALLEFYKIHYLDTTTLIEPVSRSRQGSGVILRQEEAEYVRALFDFNGNDEEDLPFKKGDILRIRDKPEEQWWNAEDSEGKRGMIPVPYVEKYRPASASVSALIGGNQEGSHPQPLGGPEPGPYAQPSVNTPLPNLQNGPIYARVIQKRVPNAYDKTALALEVGELVKVTKINVSGQWEGECNGKRGHFPFTHVRLLDQQNPDEDFS
notes: CRK proto-oncogene, adaptor protein, human, as on the HuProt v3.1 array; source: S. cerevisiae, purified (GST tag); on bought array: HuProt v3.1, Cambridge Protein Arrays
In the case of B3, the binding result is “binds”.

B4: Cell division cycle associated 3 (natural protein, human, UniProt Q99618 1-268, looked up)
chain: MGSAKSVPVTPARPPPHNKHLARVADPRSPSAGILRTPIQVESSPQPGLPAGEQLEGLKHAQDSDPRSPTLGIARTPMKTSSGDPPSPLVKQLSEVFETEDSKSNLPPEPVLPPEAPLSSELDLPLGTQLSVEEQMPPWNQTEFPSKQVFSKEEARQPTETPVASQSSDKPSRDPETPRSSGSMRNRWKPNSSKVLGRSPLTILQDDNSPGTLTLRQGKRPSPLSENVSELKEGAILGTGRLLKTGGRAWEQGQDHDKENQHFPLVES
notes: Cell division cycle associated 3, human, as on the HuProt v3.1 array; also called CDCA3; source: S. cerevisiae, purified (GST tag); on bought array: HuProt v3.1, Cambridge Protein Arrays
With B4, the binding result is “binds”.

Source of the values: article PMC8366450, “Human CPPED1 belongs to calcineurin‐like metallophosphoesterase superfamily and dephosphorylates PI3K‐AKT pathway component PAK4” (Journal of Cellular and Molecular Medicine, 2021).
